From publication PMC10023573 come the findings set out here.

The subject of the series is S9.6 anti-DNA:RNA hybrid monoclonal antibody, gold conjugate. The experiment in a line: immuno electron microscopy. The settings on record: 10 ug/mL S9.6-gold, psoralen cross-linked, co-transcriptional R-loop (RNA hybrid), S9.6-gold 10 ug/mL with 80-100 ng pFC53, 1 h at 37 C, then 0.2% glutaraldehyde 15 min at 37 C, labeling buffer, salt and pH not given.

With “pFC53 linear, T3-transcribed, R-loop in mAirn”, the binding signal (% of molecules labeled) (labels cluster in Airn region) was determined as 50.
Consider “pFC53 circular, T3-transcribed, R-loop in mAirn”, for which the binding signal (% of molecules labeled) was 50.
